Assay results reported in patent US20250361274A1, “PEPTIDE AND PEPTIDE-CONTAINING AGENT” (PEPTIDREAM INC., priority 2022, published 2025).
Read-outs that look alike come from different tables or passages of the source. Values belong to the molecule of their own block, whether it stands above or below them. Numbered stars: 1 amine (or outer) side, 2 acyl side, 3 side chain; on linkers, the order of the positions; unused ones are H or OH. Bridge positions count the residues as written; N and C are the ends. Square brackets hold non-standard residues; d marks the D form. Side chains are listed from the residue outwards. Peptide text beside a SMILES is read from it. * marks the point of attachment. 3Pal(6-Ph) = N[C@@H](Cc1ccc(-c2ccccc2)nc1)C(=O)O; Phe(4-COOH) = N[C@@H](Cc1ccc(C(=O)O)cc1)C(=O)O; NMePhe(4-Me) = CN[C@@H](Cc1ccc(C)cc1)C(=O)O; Piperazinyl(4-CH2COOH) = O=C(O)CN1CCN(*)CC1; Bip = N[C@@H](Cc1ccc(-c2ccccc2)cc1)C(=O)O; Phe(4-F) = N[C@@H](Cc1ccc(F)cc1)C(=O)O; cisHyp = O=C(O)[C@@H]1C[C@H](O)CN1; Hyp = O=C(O)[C@@H]1C[C@@H](O)CN1; NMeF = CN[C@@H](Cc1ccccc1)C(=O)O; Aad = N[C@@H](CCCC(=O)O)C(=O)O; Cha = N[C@@H](CC1CCCCC1)C(=O)O; CO = O=C([*:1])[*:2]; βAla = NCCC(=O)O

Experiments:
BMP4 [1] = molecular target: T1, BMP4 (Homo sapiens, UniProt P12644); assay: BMP4 signal transduction inhibitory activity: SMAD1 phosphorylation by BMP4 stimulus, AlphaLISA SureFire, A549 cells; format: cell-based; details: BMP4 0.2 nM stimulus
T1 sequence (P12644 293-408): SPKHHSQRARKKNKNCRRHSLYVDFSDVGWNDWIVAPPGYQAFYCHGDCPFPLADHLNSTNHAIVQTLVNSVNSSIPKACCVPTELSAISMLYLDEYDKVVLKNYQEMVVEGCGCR

BMP7 [2] = molecular target: T2, BMP7 (Homo sapiens, UniProt P18075); assay: BMP7 signal transduction inhibitory activity: SMAD1 phosphorylation by BMP7 stimulus, A549 cells; format: cell-based; details: BMP7 10 nM stimulus
T2 sequence (P18075 293-431): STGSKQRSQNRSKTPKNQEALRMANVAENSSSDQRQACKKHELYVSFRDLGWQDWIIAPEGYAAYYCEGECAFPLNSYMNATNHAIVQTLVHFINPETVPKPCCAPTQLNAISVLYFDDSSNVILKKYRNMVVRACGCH
Summary of the method: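 SMAD1 phosphorylation readout in A549 cells stimulated with BMP7 (10 nM). Peptides were tested at three levels (e.g. 1/10/100, 10/100/1,000, 100/300/1,000, 10/30/90 nM) or at eight points, 1/3 steps, from 100 or 1,000 nM. Recombinant Noggin served as positive control at matching concentrations.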

BMP4 [3] = molecular target: T3, BMP4 (UniProt P12644 293-408); assay: cell-based or functional assay
T3 sequence (looked up): T1 sequence (P12644 293-408)

BMP7 [4] = molecular target: T4, BMP7 (UniProt P18075 293-431); assay: cell-based or functional assay
T4 sequence (looked up): T2 sequence (P18075 293-431)

BMP4 [5] = molecular target: T3, BMP4; assay: cell-based or functional assay; remark: listed apart in the source
BMP7 [6] = molecular target: T4, BMP7; assay: cell-based or functional assay; remark: listed apart in the source
BMP6 = molecular target: T5, BMP6 (UniProt P22004 382-513, limits assumed); assay: cell-based or functional assay
T5 sequence (looked up): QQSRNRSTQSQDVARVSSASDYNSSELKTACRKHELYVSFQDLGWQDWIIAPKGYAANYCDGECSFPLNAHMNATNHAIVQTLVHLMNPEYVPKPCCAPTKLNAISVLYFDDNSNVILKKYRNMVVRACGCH

BMP5 = molecular target: T6, BMP5 (UniProt P22003 317-454, limits assumed); assay: cell-based or functional assay
T6 sequence (looked up): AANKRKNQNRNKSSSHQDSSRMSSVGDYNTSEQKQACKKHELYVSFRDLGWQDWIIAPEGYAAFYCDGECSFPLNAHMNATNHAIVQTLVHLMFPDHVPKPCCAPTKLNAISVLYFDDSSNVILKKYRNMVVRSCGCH

BMP7 [7] = molecular target: T4, BMP7; assay: cell-based or functional assay; remark: listed apart in the source

Molecule: CC(C)[C@@H]1NC(=O)[C@H](Cc2ccc(C(=O)O)cc2)NC(=O)[C@H](C(C)C)NC(=O)[C@H](CCCNC(=N)N)NC(=O)[C@H](CCC(=O)O)NC(=O)CSC[C@@H](C(=O)NCC(N)=O)NC(=O)[C@H](CO)NC(=O)[C@H](Cc2ccc(C(=O)O)cc2)NC(=O)[C@H](Cc2ccc(C(=O)O)cc2)NC(=O)[C@H](Cc2ccc(O)cc2)NC(=O)[C@H](Cc2ccc(-c3ccccc3)cc2)NC(=O)[C@@H]2C[C@@H](O)CN2C(=O)[C@H](Cc2ccc(O)cc2)NC(=O)[C@H](CCCCNC(=O)N2CCN(CC(=O)O)CC2)NC(=O)[C@H](Cc2ccc(-c3ccccc3)nc2)NC(=O)[C@H](CCCNC(=N)N)NC(=O)[C@H](CCCCNC(=O)N2CCN(CC(=O)O)CC2)NC1=O [compound 277] ({CH2CO}-ERV[Phe(4-COOH)]VK([CO-Piperazinyl(4-CH2COOH)])R[3Pal(6-Ph)]K([CO-Piperazinyl(4-CH2COOH)])Y[Hyp][Bip]Y[Phe(4-COOH)][Phe(4-COOH)]SCG-NH2; thioether N-17)
- aLIZA BMP4 (0.2 nM) % inh (BMP4 [1]; peptide conc. in assay 0.02, 0.2, 2 nM, class symbols): B (showed less than 30% of inhibitory activity in 0.02 nM-addition zone and showed 30% or more of inhibitory activity in 0.2 nM-addition zone)
- aLIZA BMP7 (10 nM) % inh (BMP7 [2]; peptide conc. in assay 100, 300, 1000 nM, class symbols): H (showed less than 30% of inhibitory activity in 300 nM-addition zone and showed 30% or more of inhibitory activity in 1,000 nM-addition zone)

Molecule: Cc1ccc(C[C@H]2C(=O)N[C@@H](CC(C)C)C(=O)N3C[C@@H](O)C[C@H]3C(=O)N[C@H](C(=O)NCCC(=O)N[C@H](CCC(=O)O)C(=O)O)CSCC(=O)N[C@@H](Cc3ccc(F)cc3)C(=O)NCC(=O)N(C)[C@@H](Cc3ccccc3)C(=O)NCC(=O)N[C@@H](Cc3ccc(-c4ccccc4)nc3)C(=O)NCC(=O)N[C@@H](CC(=O)O)C(=O)N[C@@H](CCC(=O)O)C(=O)N[C@@H](CC3CCCCC3)C(=O)N[C@@H](CCCC(=O)O)C(=O)N2C)cc1 [compound 417] ({CH2CO}-[Phe(4-F)]G[NMeF]G[3Pal(6-Ph)]GDE[Cha][Aad][NMePhe(4-Me)]L[cisHyp]C[βAla][dE]-OH; thioether N-14)
- aLISA BMP4 (0.2 nM) % inh (BMP4 [1]; peptide conc. in assay 0.2, 2, 20 nM): ND (the inhibitory activity was less than 30% at the maximum concentration evaluated)
- aLISA BMP7 (10 nM) % inh (BMP7 [2]; peptide conc. in assay 1, 10, 100 nM): C (showed less than 30% of inhibitory activity in a zone to which the peptide was added in an amount of 1 nM and showed 30% or more of inhibitory activity in 10 nM-addition zone)

- IC50 (nM), SMAD1 phosphorylation in A549 cells (BMP4 [3]): 0.13 nM
- IC50 (nM), SMAD1 phosphorylation in A549 cells (BMP7 [4]): 5.74 nM
- IC50 (nM), SMAD1 phosphorylation in A549 cells (BMP4 [5]): 0.08 nM
- IC50 (nM), SMAD1 phosphorylation in A549 cells (BMP7 [6]): 2.7 nM
Molecule: recombinant Human Noggin Protein (R&D) (from UniProt Q13253 28-232)

- IC50, SMAD1 phosphorylation, BMP6 3 nM (BMP6): 28.7 nM
- IC50, SMAD1 phosphorylation, BMP5 2 nM (BMP5): 19.3 nM
- IC50 (nM), SMAD1 phosphorylation in A549 cells (BMP7 [7]): 15.6 nM
Molecule: {CH2CO}-[Phe(4-F)]G[NMeF]G[3Pal(6-Ph)]GDE[Cha][Aad][NMePhe(4-Me)]L[cisHyp]C[βAla][dE]-OH (thioether N-14 (inferred)) [BMP7 signal transduction inhibition peptide SEQ ID NO: 417 (Example 6)]
